Common to all, as to assay: AUC
Data set [1] deals with 22S protein of the mitotic apparatus, Arbacia punctulata (Arbacia punctulata).
Data set [2] has the same target. This is another data set of the same source.
Data set [3] has the same target. This is another data set of the same source.
Data set [4] shares this target. This is another data set of the same source.
Data set [5] has the same target. The source holds these as a separate data set.
The target is the same in data set [6]. The source holds these as a separate data set.
The target of data set [7] is 22S protein of the mitotic apparatus, Strongylocentrotus droebachiensis (Strongylocentrotus droebachiensis).
For data set [8] the target is unchanged. This is another data set of the same source.
Data set [9] shares this target. This is another data set of the same source.
Data set [10] concerns the molecule itself.
Data set [11] deals with the molecule itself. The source holds these as a separate data set.

“And” between values parts separate entries of the source, which are not always exact repeats. Equal entries are not always repeated. Where two headings read alike, the source gives them in different places.

For orientation: stoichiometry N means a count of units in the complex or per binding partner. Regarding “22S protein of the mitotic apparatus, Arbacia punctulata (natural protein)”, the stoichiometry N was 2 in data set [1]; 2 in data set [2]; 2 in data set [3]; 4 and 2 and 6 in [4]; 6 and 4 and 2 in data set [5]; 8 in data set [6].
As for “22S protein of the mitotic apparatus, Strongylocentrotus droebachiensis (natural protein)”, the results for the stoichiometry N in data set [7], in [8] and in [9] were 2, 2 and 8, respectively.

B1: 22S protein of the mitotic apparatus, Strongylocentrotus purpuratus (natural protein)
chain: VPSGSLGSRPGTCPPQPSDQVMIEATRCSYVYGLTWDWNCNSQGQENYKCCQYENDIRICVPPIPADVDEEVGVEQPSQSVDQVRQAIQKTQDFIRKVGLYPAPDQRRRTTPTPDTVRWCVSSRCQMTKCQRMVSEFTYSPNMVPRKQWKCTQATSQEQCMFWIEQGWADIMTTREGQVYSANTTFNLKPIAYETTINDQQPEIQILKHYQNVTFALKSSRLVNPNTFSELRDKTTCHAGIDMPDFDMPASFADPVCNLIKEGVIPVTGNYIESFSDFVQESCVPGVLNMTYNKNGTYPLSLVTLCEDQQYKYSGIKGALSCLESGKGQVTFVDQKVIKKIMSDPNVRDNFQVVCRDESRPLDEEIFTDVTCHVGHTARPTIFINKNNTQQKETDIKTLVVKMMELYGNTDRDVNFNIFDSSVYDCGKCQMTGKPLNKNLIFLEESNTMKIVDDSKVYAGEVYAAYNVCSKLVPKPRAKICVTNVTEYEACRRFKGIAENIPEVKKVAWGCVLANSSIECMQAVHNNTADLFKANPMETFIAGKEFLLDPLMSVHRNDSVTMNHTYTRTLAVIKRSSLAKFPGLLSVPEGQPKYIKDLWKLKICSAGLKNFSAFHSPIGYLLANGTIPRIGSVFESVNRYFQATCVPEIEPETWRLDSDLLLGREMNWGFSSLNMYNFTGQEWLLWNTPATWNFLTYNRKVSTGLDIKKLIELKKQNLTSHIFNQNLSSPRNVELLDDLVGVEGISDLVKGVQDTIGPEGKQKMNMLRDRLSNSFPNFEAVRTLSDKVDIVNKMKDARQQRLQNKDHPFGNVIQETFQGHLMVDVFSKLLELRSDKISTLEEIISHVKTIPYLTDFKDVEITTVLKHPAIMSYVEIYFPRLSQTFVEPFDNVELREREFNRYTNPLWLSPKVHTYLDLVKNHQTEITKTCNSNLPLNFKGYEGALRCLKSGVADLASSTSRPSVTRTLRDTDLSTGWVHLQRPPPSLPQRQVVEIDVNMDIAKVCNFGEVMNPVLVTAYNTSGSWRWNITKALMIAHQSVALPALFGEGTVMGKDYDMLLPIAPLNQSYQPFLGSKPLRSMEAIVKASSYDWFKDQTGICYGETYTNIVKQRNETCQAIVKDVTCVGTPRMKKISVGRFGAKQFKMIKMCSRPSKFVRKMADFQCDNGFGYLKPVITAVACECMLCEEMIEYNTSFTEDNMWSDVSNKYVLTGEQDIYRQIPIWGNNSYFYDHTLNKNFELGNHSIIVEHVQTVVVERPSPGILSQVNSEVDPEVQVQMDSASLTKTCETVWNGQSWLPERFQGYKTSGSCVVPETGANAKSRVDRFRQIMQRKQQLVDHHH
modifications: carbohydrate 5-6% (orcein assay) or 7-8% (anthrone test), several per cent glucosamine; sites not stated
B1: the “stoichiometry N” value came to 2 in the data set “AUC [10]” and 8 in “AUC [11]”.

The values above are taken from paper PMC2107256 (The Journal of Cell Biology, 1967).
